From IntAct's records for PubMed 21131967

B1: Transcription factor p65 (Mus musculus), Q04207 (parent)
chain: MDDLFPLIFPSEPAQASGPYVEIIEQPKQRGMRFRYKCEGRSAGSIPGERSTDTTKTHPTIKINGYTGPGTVRISLVTKDPPHRPHPHELVGKDCRDGYYEADLCPDRSIHSFQNLGIQCVKKRDLEQAISQRIQTNNNPFHVPIEEQRGDYDLNAVRLCFQVTVRDPAGRPLLLTPVLSHPIFDNRAPNTAELKICRVNRNSGSCLGGDEIFLLCDKVQKEDIEVYFTGPGWEARGSFSQADVHRQVAIVFRTPPYADPSLQAPVRVSMQLRRPSDRELSEPMEFQYLPDTDDRHRIEEKRKRTYETFKSIMKKSPFNGPTEPRPPTRRIAVPTRNSTSVPKPAPQPYTFPASLSTINFDEFSPMLLPSGQISNQALALAPSSAPVLAQTMVPSSAMVPLAQPPAPAPVLTPGPPQSLSAPVPKSTQAGEGTLSEALLHLQFDADEDLGALLGNSTDPGVFTDLASVDNSEFQQLLNQGVSMSHSTAEPMLMEYPEAITRLVTGSQRPPDPAPTPLGTSGLPNGLSGDEDFSSIADMDFSALLSQISS
partner: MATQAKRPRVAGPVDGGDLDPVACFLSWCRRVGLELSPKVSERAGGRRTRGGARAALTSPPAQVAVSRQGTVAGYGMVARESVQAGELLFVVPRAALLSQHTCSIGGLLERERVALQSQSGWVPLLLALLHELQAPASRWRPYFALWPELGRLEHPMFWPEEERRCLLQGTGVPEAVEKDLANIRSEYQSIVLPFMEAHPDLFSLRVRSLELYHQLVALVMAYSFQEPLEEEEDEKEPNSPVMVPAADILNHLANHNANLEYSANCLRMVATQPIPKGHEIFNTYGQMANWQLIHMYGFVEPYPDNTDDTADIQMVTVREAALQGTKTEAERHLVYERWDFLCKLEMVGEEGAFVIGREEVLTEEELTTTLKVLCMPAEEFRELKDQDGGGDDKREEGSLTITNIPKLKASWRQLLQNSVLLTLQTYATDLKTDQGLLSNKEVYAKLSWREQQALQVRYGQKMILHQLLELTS
B2: N-lysine methyltransferase SETD6 (Homo sapiens), Q8TBK2 (parent)
chain: B1 partner
B3: Transcription factor p65 (Mus musculus), Q04207 (parent)
chain: B1 chain
partner: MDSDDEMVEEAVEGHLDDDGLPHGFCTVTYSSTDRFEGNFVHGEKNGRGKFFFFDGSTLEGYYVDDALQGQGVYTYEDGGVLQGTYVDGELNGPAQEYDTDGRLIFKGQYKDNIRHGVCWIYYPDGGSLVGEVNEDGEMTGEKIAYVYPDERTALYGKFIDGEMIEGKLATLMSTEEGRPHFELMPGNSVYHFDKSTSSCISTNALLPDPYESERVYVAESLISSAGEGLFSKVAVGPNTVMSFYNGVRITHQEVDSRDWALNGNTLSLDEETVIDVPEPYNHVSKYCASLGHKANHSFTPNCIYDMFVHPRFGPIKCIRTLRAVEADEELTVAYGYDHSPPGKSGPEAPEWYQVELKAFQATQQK

Variants of: B1
Settings: with setd6_human SETD6, Q8TBK2

effect of a mutation on the interaction	Variant
disrupting interaction	K310R

Variants of: B2
Settings: with tf65_mouse Rela, Q04207

effect of a mutation on the interaction	Variant
disrupting interaction	Y285A

Variants of: B3
Settings: with setd7_human SETD7, Q8WTS6

effect of a mutation on the interaction	Variant
disrupting interaction	K310R
